Assay results taken from EP4803547A1 (Biontech (Zhuhai) Pharmaceuticals R&D Co., Ltd, dated 2026).

Columns and labels:
[1] = target: T1, human CD40 on cells (human, UniProt P25942 21-277); test: flow cytometry on CHO-hCD40 cells, anti-human IgG-Fc PE
T1 construct: whole, on cells; One molecule is used for human CD40 on the three cell types; also called CHO-hCD40; CHO-S cells overexpressing human CD40

[2] = target: T2, human PD-1 on cells (human, UniProt Q15116 25-288); test: flow cytometry on CHO-hPD-1 cells, anti-human IgG-Fc PE
T2 construct: whole, on cells; also called CHO-hPD-1; CHO-S cells overexpressing human PD-1

[3] = target: human PD-1 protein (human, UniProt Q15116 25-167, limits assumed); test: BLI (ForteBio), antibody on AHQ sensor, 100 nM antigen, 1:1 model
[4] = target: human CD40 protein (human, UniProt P25942 21-193, limits assumed); test: as above

Measured: binding result

human PD-1 protein, sequence (Q15116 25-167 limits assumed): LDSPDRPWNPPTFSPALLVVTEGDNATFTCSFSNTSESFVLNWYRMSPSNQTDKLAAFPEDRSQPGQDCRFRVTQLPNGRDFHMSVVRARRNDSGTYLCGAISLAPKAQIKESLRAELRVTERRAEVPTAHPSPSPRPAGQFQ
human CD40 protein, sequence (P25942 21-193 limits assumed): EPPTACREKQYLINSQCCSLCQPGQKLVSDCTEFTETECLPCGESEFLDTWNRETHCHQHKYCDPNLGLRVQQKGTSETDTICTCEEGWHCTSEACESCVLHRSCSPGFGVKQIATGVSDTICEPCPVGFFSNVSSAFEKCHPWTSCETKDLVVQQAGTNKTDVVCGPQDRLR
T2 sequence (Q15116 25-288): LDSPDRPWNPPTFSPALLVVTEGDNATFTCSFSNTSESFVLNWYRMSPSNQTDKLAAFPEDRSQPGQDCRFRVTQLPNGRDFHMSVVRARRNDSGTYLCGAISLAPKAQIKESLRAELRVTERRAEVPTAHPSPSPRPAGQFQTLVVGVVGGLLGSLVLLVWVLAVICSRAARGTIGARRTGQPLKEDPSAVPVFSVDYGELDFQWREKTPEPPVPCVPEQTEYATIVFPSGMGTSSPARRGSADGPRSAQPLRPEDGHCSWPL
T1 sequence (P25942 21-277): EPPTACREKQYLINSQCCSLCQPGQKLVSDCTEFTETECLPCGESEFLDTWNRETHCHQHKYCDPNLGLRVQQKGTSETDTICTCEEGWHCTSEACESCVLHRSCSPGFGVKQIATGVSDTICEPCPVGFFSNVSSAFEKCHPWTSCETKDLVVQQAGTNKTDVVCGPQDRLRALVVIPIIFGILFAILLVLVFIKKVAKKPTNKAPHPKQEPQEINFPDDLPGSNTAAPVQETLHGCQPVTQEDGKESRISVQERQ

B1: PD1(pembro)xCD40(non-blocker, ADI-55164) (bispecific antibody, human IgG1, kappa)
heavy: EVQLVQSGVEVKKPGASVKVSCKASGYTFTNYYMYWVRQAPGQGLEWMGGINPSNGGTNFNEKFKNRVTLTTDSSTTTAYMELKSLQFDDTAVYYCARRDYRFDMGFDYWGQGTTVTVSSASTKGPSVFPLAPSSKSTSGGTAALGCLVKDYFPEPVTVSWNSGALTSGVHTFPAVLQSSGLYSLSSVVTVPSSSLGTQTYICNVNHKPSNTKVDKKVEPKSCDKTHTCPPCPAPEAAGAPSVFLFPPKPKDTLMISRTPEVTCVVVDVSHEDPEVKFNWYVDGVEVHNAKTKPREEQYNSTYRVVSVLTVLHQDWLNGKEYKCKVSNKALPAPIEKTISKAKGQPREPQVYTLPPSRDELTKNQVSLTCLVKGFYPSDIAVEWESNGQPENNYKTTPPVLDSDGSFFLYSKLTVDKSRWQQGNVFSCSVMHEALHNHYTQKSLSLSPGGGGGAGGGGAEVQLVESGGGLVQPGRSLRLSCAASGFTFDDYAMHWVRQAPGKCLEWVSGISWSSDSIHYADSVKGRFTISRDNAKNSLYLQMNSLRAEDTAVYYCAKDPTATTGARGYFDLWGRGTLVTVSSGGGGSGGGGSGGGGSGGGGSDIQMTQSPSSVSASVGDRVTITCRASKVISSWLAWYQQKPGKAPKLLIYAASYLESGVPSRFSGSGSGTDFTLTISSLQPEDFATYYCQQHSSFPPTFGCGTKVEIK
light: EIVLTQSPATLSLSPGERATLSCRASKGVSTSGYSYLHWYQQKPGQAPRLLIYLASYLESGVPARFSGSGSGTDFTLTISSLEPEDFAVYYCQHSRDLPLTFGGGTKVEIKRTVAAPSVFIFPPSDEQLKSGTASVVCLLNNFYPREAKVQWKVDNALQSGNSQESVTEQDSKDSTYSLSSTLTLSKADYEKHKVYACEVTHQGLSSPVTKSFNRGEC
notes: also called BsAb-3; PD1(pembro)xCD40(ADI-55164)
binds: all assays above

B2: PD1xCD40(blocker, ADI-55147) (bispecific antibody, human IgG1, kappa)
heavy: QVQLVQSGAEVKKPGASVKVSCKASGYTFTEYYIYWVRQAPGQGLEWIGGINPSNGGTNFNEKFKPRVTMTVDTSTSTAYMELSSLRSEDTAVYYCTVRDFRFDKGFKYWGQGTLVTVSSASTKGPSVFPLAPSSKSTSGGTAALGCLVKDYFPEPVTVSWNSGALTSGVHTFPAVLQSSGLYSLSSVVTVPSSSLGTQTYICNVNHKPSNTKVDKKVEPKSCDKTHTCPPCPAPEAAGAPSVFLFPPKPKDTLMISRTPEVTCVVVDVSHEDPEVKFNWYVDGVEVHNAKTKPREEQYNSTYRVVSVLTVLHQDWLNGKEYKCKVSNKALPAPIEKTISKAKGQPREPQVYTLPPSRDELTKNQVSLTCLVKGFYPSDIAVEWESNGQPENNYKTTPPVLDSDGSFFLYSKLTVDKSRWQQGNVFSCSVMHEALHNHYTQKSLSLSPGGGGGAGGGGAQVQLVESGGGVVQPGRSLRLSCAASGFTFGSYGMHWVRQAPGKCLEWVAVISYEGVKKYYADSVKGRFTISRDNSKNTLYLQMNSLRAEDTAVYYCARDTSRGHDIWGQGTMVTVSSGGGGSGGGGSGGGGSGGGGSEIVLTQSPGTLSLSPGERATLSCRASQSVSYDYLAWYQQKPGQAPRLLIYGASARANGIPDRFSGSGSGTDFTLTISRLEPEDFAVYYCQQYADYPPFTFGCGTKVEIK
light: EIVLTQSPATLSLSPGERATLSCRASKSVSTSGLNYVHWYQRKPGQAPRLLIYLGSYLDSGVPARFSGSGSGTDFTLTISSLEPEDFAVYYCQQSWELPLTFGGGTKVEIKRTVAAPSVFIFPPSDEQLKSGTASVVCLLNNFYPREAKVQWKVDNALQSGNSQESVTEQDSKDSTYSLSSTLTLSKADYEKHKVYACEVTHQGLSSPVTKSFNRGEC
notes: also called BsAb-2
binds: all assays above
